Laboratory results: the supplement of paper PMC10567573

B1: TRIM35 (parent)
chain: DKELLCCSCQADPRHQGHRVQPVK
B2: RSPH3 (parent)
chain: MTVKPAKAASLARNLAKRRRTYLG

Variants of: B1
Assay: protein stability index of a GFP-peptide fusion (GPS, HEK-293T) (PSI 1-6); higher = more stable
Settings: c terminus: a fixed tail appended
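Also: lentivirally expressed fusions sorted by FACS into six bins by GFP to DsRed ratio, PSI derived from sequencing read proportions per bin multiplied by bin number.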

Going from DKELLCCSCQADPRHQGHRWQPVK [V20W] to DKELLCCSCQADPRHQGHRHQPVK [V20H], the protein stability index rises from 2.76 to 4.69.

First: DKELLCCSCQADPRHQGHREQPVK [V20E]
Second: DKELLCCSCQADPRHQGHRQQPVK [V20Q]
The protein stability index of the first is lower: 4.04 for the first, 4.11 for the second.

Compared with DKELLCCSCQADPRHQGHRYQPVK [V20Y], DKELLCCSCQADPRHQGHRRQPVK [V20R] is higher in protein stability index: 3.04 for the first, 3.5 for the second.

Going from DKELLCCSCQADPRHQGHRNQPVK [V20N] to DKELLCCSCQADPRHQGHRAQPVK [V20A], the protein stability index falls from 4.13 to 3.13.

First: DKELLCCSCQADPRHQGHRFQPVK [V20F]
Second: DKELLCCSCQADPRHQGHRIQPVK [V20I]
The protein stability index of the first is higher: 3.48 for the first, 3.44 for the second.

Going from DKELLCCSCQADPRHQGHRSQPVK [V20S] to DKELLCCSCQADPRHQGHRTQPVK [V20T], the protein stability index falls from 3.71 to 3.5.

Compared with DKELLCCSCQADPRHQGHRGQPVK [V20G], DKELLCCSCQADPRHQGHRCQPVK [V20C] is higher in protein stability index: 4.15 for the first, 4.46 for the second.

First: DKELLCCSCQADPRHQGHRPQPVK [V20P]
Second: DKELLCCSCQADPRHQGHRVQPVG [K24G]
The protein stability index of the first is higher: 4.54 for the first, 3.63 for the second.

Going from DKELLCCSCQADPRHQGHRVQPVT [K24T] to DKELLCCSCQADPRHQGHRVQPVI [K24I], the protein stability index falls from 3.31 to 2.73.

Going from DKELLCCSCQADPRHQGHRVQPVF [K24F] to DKELLCCSCQADPRHQGHRVQPVA [K24A], the protein stability index falls from 3.79 to 2.87.

First: DKELLCCSCQADPRHQGHRVQPVE [K24E]
Second: DKELLCCSCQADPRHQGHRVQPVM [K24M]
The protein stability index of the first is higher: 3.81 for the first, 3.29 for the second.

Compared with DKELLCCSCQADPRHQGHRVQPVQ [K24Q], DKELLCCSCQADPRHQGHRVQPVV [K24V] is lower in protein stability index: 3.77 for the first, 2.92 for the second.

First: DKELLCCSCQADPRHQGHRVQPVC [K24C]
Second: DKELLCCSCQADPRHQGHRVQPVD [K24D]
The protein stability index of the first is lower: 3.18 for the first, 4.05 for the second.

Compared with DKELLCCSCQADPRHQGHRVQPVP [K24P], DKELLCCSCQADPRHQGHRVQPVH [K24H] is lower in protein stability index: 3.46 for the first, 3.38 for the second.

First: DKELLCCSCQADPRHQGHRVQPVR [K24R]
Second: DKELLCCSCQADPRHQGHRVQPVY [K24Y]
The protein stability index of the first is higher: 2.82 for the first, 2.79 for the second.

Going from DKELLCCSCQADPRHQGHRVQPVS [K24S] to DKELLCCSCQADPRHQGHRVQPVL [K24L], the protein stability index falls from 3.52 to 2.65.

Going from DKELLCCSCQADPRHQGHRVQPVW [K24W] to DKELLCCSCQADPRHQGHRVQPVN [K24N], the protein stability index rises from 2.53 to 3.04.

Going from DKELLCCSCQADPWHQGHRVQPVK [R14W] to DKELLCCSCQADPVHQGHRVQPVK [R14V], the protein stability index rises from 2.46 to 2.95.

Going from DKELLCCSCQADPTHQGHRVQPVK [R14T] to DKELLCCSCQADPYHQGHRVQPVK [R14Y], the protein stability index falls from 3.52 to 3.35.

Going from DKELLCCSCQADPRHQGCRVQPVK [H18C] to DKELLCCSCQADPRHQGSRVQPVK [H18S], the protein stability index rises from 2.75 to 4.38.

Compared with DKELLCCSCQADPRHQGTRVQPVK [H18T], DKELLCCSCQADPRHQGARVQPVK [H18A] is higher in protein stability index: 3.88 for the first, 3.89 for the second.

Compared with DKELLCCSCQADPRHQGWRVQPVK [H18W], DKELLCCSCQADPRHQGPRVQPVK [H18P] is lower in protein stability index: 4.14 for the first, 2.6 for the second.

Going from DKELLCCSCQADPRHQGMRVQPVK [H18M] to DKELLCCSCQADPRHQGIRVQPVK [H18I], the protein stability index falls from 3.97 to 3.9.

First: DKELLCCSCQADPRHQGKRVQPVK [H18K]
Second: DKELLCCSCQADPRHQGQRVQPVK [H18Q]
The protein stability index of the first is higher: 4.16 for the first, 3.29 for the second.

Compared with DKELLCCSCQADPRHQGLRVQPVK [H18L], DKELLCCSCQADPRHQGGRVQPVK [H18G] is higher in protein stability index: 3.65 for the first, 4.1 for the second.

Compared with DKELLCCSCQADPRHQGNRVQPVK [H18N], DKELLCCSCQADPRHQGDRVQPVK [H18D] is lower in protein stability index: 3.98 for the first, 3.91 for the second.

First: DKELLCCSCQADPRHQGVRVQPVK [H18V]
Second: DKELLCCSCQADPRHQGRRVQPVK [H18R]
The protein stability index of the first is lower: 2.73 for the first, 3.6 for the second.

First: DKELLCCSCQADPRHQGHRVQPIK [V23I]
Second: DKELLCCSCQADPRHQGHRVQPAK [V23A]
The protein stability index of the first is higher: 4.25 for the first, 3.88 for the second.

Going from DKELLCCSCQADPRHQGHRVQPPK [V23P] to DKELLCCSCQADPRHQGHRVQPYK [V23Y], the protein stability index falls from 4.06 to 2.96.

Compared with DKELLCCSCQADPRHQGHRVQPLK [V23L], DKELLCCSCQADPRHQGHRVQPHK [V23H] is lower in protein stability index: 4.02 for the first, 3.23 for the second.

Compared with DKELLCCSCQADPRHQGHRVQPDK [V23D], DKELLCCSCQADPRHQGHRVQPWK [V23W] is lower in protein stability index: 4.19 for the first, 2.19 for the second.

Compared with DKELLCCSCQADPRHQGHRVQPMK [V23M], DKELLCCSCQADPRHQGHRVQPNK [V23N] is higher in protein stability index: 3.05 for the first, 3.8 for the second.

First: DKELLCCSCQADPRHQGHRVQPQK [V23Q]
Second: DKELLCCSCQADPRHQGHRVQPEK [V23E]
The protein stability index of the first is higher: 4.13 for the first, 3.92 for the second.

First: DKELLCCSCQADPRHQGHRVQPTK [V23T]
Second: DKELLCCSCQADPRHQGHRVQPKK [V23K]
The protein stability index of the first is lower: 3.4 for the first, 4.55 for the second.

First: DKELLCCSCQADPRHQGHRVQPCK [V23C]
Second: DKELLCCSCQADPRHQGHRVQPSK [V23S]
The protein stability index of the first is higher: 4 for the first, 3.36 for the second.

Compared with DKELLCCSCQADPRHQGHRVQPGK [V23G], DKELLCCSCQADPRHQGHRVQPFK [V23F] is lower in protein stability index: 3.87 for the first, 3.07 for the second.

First: DKELLCCSCQADPRHQGHKVQPVK [R19K]
Second: DKELLCCSCQADPRHQGHMVQPVK [R19M]
The protein stability index of the first is lower: 3.56 for the first, 3.71 for the second.

First: DKELLCCSCQADPRHQGHTVQPVK [R19T]
Second: DKELLCCSCQADPRHQGHIVQPVK [R19I]
The protein stability index of the first is lower: 3.01 for the first, 3.19 for the second.

Compared with DKELLCCSCQADPRHQGHDVQPVK [R19D], DKELLCCSCQADPRHQGHNVQPVK [R19N] is lower in protein stability index: 4.79 for the first, 3.73 for the second.

Going from DKELLCCSCQADPRHQGHVVQPVK [R19V] to DKELLCCSCQADPRHQGHFVQPVK [R19F], the protein stability index falls from 3.84 to 2.66.

Going from DKELLCCSCQADPRHQGHSVQPVK [R19S] to DKELLCCSCQADPRHQGHHVQPVK [R19H], the protein stability index falls from 3.73 to 3.17.

Compared with DKELLCCSCQADPRHQGHPVQPVK [R19P], DKELLCCSCQADPRHQGHYVQPVK [R19Y] is lower in protein stability index: 3.73 for the first, 3.16 for the second.

Going from DKELLCCSCQADPRHQGHQVQPVK [R19Q] to DKELLCCSCQADPRHQGHLVQPVK [R19L], the protein stability index falls from 3.67 to 3.52.

Compared with DKELLCCSCQADPRHQGHWVQPVK [R19W], DKELLCCSCQADPRHQGHGVQPVK [R19G] is higher in protein stability index: 2.78 for the first, 3.63 for the second.

Compared with DKELLCCSCQADPRHQGHEVQPVK [R19E], DKELLCCSCQADPRHQGHCVQPVK [R19C] is lower in protein stability index: 4.33 for the first, 3.63 for the second.

Variant DKELLCCSCQADPRHQGHAVQPVK [R19A] has a protein stability index of 3.62.

Variants of: B2
Assay: as above
Settings: c terminus: a fixed tail appended

First: ATVKPAKAASLARNLAKRRRTYLG [M1A]
Second: DTVKPAKAASLARNLAKRRRTYLG [M1D]
The protein stability index of the first is higher: 3.34 for the first, 2.85 for the second.

For CTVKPAKAASLARNLAKRRRTYLG [M1C], the protein stability index was 2.71.
